According to patent US20250075002A1:

What was measured:
[1] = molecular target: MUC1 as expressed on normal activated human T cells (human) (UniProt P15941); experiment: FACS, PHA-L-activated human PBMC, live αβTCR+ gate, Donor 191271003C; antibody 10 µg/mL by paragraph 182
[2] = molecular target: MUC1 as expressed on normal activated human T cells (human) (UniProt P15941); experiment: FACS, PHA-L-activated human PBMC, live αβTCR+ gate, Donor 191271715C; antibody 10 µg/mL by paragraph 182
[3] = molecular target: MUC1 as expressed on normal activated human T cells (human) (UniProt P15941); experiment: FACS, PHA-L-activated human PBMC, live αβTCR+ gate, Donor 3011029; antibody 10 µg/mL by paragraph 182
[4] = molecular target: MUC1 as expressed on normal activated human T cells (human) (UniProt P15941); experiment: FACS, PHA-L-activated human PBMC, live αβTCR+ gate, Donor 3009223; antibody 10 µg/mL by paragraph 182
[5] = molecular target: MUC1 as expressed on normal activated human T cells (human) (UniProt P15941); experiment: FACS, PHA-L-activated human PBMC, live αβTCR+ gate, Donor 191180405C; antibody 10 µg/mL by paragraph 182
[6] = molecular target: MUC1 as expressed on normal activated human T cells (human) (UniProt P15941); experiment: FACS, PHA-L-activated human PBMC, live αβTCR+ gate, Donor 190980805C; antibody 10 µg/mL by paragraph 182
[7] = molecular target: human CD16B (NA1) on NK92mi cells (human) (UniProt O75015); experiment: flow cytometry on NK92mi/CD16B (NA1) cells; control
[8] = molecular target: human CD16B (NA2) on NK92mi cells (human) (UniProt O75015); experiment: flow cytometry on NK92mi/CD16B (NA2) cells; control
[9] = molecular target: human CD16A (V158) on NK92mi cells (human) (UniProt P08637); experiment: flow cytometry on NK92mi/CD16A cells (V158 by paragraph 201); control
[10] = molecular target: MUC1 as expressed on normal activated human T cells (human) (UniProt P15941); experiment: FACS, PHA-L-activated human PBMC, live αβTCR+ gate, Donor 3011029; concentration of the isotype control not told
[11] = molecular target: MUC1 as expressed on normal activated human T cells (human) (UniProt P15941); experiment: FACS, PHA-L-activated human PBMC, live αβTCR+ gate, Donor 3009223; concentration of the isotype control not told
[12] = molecular target: MUC1 as expressed on normal activated human T cells (human) (UniProt P15941); experiment: FACS, PHA-L-activated human PBMC, live αβTCR+ gate, Donor 3011029; concentration of the isotype control not told; remark: listed apart in the source
[13] = molecular target: MUC1 as expressed on normal activated human T cells (human) (UniProt P15941); experiment: FACS, PHA-L-activated human PBMC, live αβTCR+ gate, Donor 3009223; concentration of the isotype control not told; remark: listed apart in the source
[14] = molecular target: MUC1 as expressed on normal activated human T cells (human) (UniProt P15941); experiment: FACS, PHA-L-activated human PBMC, live αβTCR+ gate, Donor 191271003C; concentration of the isotype control not told
[15] = molecular target: MUC1 as expressed on normal activated human T cells (human) (UniProt P15941); experiment: FACS, PHA-L-activated human PBMC, live αβTCR+ gate, Donor 191271715C; concentration of the isotype control not told
[16] = molecular target: MUC1 as expressed on normal activated human T cells (human) (UniProt P15941); experiment: FACS, PHA-L-activated human PBMC, live αβTCR+ gate, Donor 191271003C; concentration of the isotype control not told; remark: listed apart in the source
[17] = molecular target: MUC1 as expressed on normal activated human T cells (human) (UniProt P15941); experiment: FACS, PHA-L-activated human PBMC, live αβTCR+ gate, Donor 191271715C; concentration of the isotype control not told; remark: listed apart in the source
[18] = molecular target: MUC1 as expressed on normal activated human T cells (human) (UniProt P15941); experiment: FACS, PHA-L-activated human PBMC, live αβTCR+ gate, Donor 191180405C; concentration of the isotype control not told
[19] = molecular target: MUC1 as expressed on normal activated human T cells (human) (UniProt P15941); experiment: FACS, PHA-L-activated human PBMC, live αβTCR+ gate, Donor 190980805C; concentration of the isotype control not told
[20] = molecular target: MUC1 as expressed on normal activated human T cells (human) (UniProt P15941); experiment: FACS, PHA-L-activated human PBMC, live αβTCR+ gate, Donor 191180405C; concentration of the isotype control not told; remark: listed apart in the source
[21] = molecular target: MUC1 as expressed on normal activated human T cells (human) (UniProt P15941); experiment: FACS, PHA-L-activated human PBMC, live αβTCR+ gate, Donor 190980805C; concentration of the isotype control not told; remark: listed apart in the source

Sequence of MUC1 as expressed on normal activated human T cells (human) (P15941 24-1255): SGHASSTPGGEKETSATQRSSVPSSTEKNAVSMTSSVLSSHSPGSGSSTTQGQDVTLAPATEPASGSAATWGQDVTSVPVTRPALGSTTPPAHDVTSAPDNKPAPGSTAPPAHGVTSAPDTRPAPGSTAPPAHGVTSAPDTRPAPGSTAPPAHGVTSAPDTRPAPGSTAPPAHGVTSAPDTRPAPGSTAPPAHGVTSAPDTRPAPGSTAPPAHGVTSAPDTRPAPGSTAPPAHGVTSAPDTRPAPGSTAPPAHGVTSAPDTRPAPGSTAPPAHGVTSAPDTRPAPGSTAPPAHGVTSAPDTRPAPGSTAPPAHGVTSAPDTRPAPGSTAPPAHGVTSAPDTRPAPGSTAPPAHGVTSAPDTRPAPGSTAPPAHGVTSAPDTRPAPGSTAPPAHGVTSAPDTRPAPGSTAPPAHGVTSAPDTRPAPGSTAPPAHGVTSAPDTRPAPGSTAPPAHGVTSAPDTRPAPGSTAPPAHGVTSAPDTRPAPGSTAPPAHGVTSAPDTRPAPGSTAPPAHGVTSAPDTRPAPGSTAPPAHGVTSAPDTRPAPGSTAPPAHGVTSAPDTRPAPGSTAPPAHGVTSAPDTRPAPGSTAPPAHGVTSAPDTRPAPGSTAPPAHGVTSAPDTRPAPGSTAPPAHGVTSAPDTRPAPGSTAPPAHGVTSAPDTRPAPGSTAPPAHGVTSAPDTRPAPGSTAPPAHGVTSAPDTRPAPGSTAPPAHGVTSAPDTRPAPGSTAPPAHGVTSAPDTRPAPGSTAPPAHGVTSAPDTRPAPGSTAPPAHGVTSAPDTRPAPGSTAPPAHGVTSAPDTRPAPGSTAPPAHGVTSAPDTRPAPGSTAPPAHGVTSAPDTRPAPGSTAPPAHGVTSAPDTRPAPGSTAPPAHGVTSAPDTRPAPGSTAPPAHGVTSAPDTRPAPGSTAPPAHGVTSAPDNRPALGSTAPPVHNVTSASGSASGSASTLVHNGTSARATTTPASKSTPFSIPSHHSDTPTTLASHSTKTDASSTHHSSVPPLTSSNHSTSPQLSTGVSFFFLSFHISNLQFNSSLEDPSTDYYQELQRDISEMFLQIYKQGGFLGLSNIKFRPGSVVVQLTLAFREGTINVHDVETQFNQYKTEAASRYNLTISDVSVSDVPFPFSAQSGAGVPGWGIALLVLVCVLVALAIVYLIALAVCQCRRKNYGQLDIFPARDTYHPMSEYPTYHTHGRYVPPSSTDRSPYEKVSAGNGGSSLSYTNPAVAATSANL
Sequence of human CD16A (V158) on NK92mi cells (human) (P08637 17-254 F176V limits assumed): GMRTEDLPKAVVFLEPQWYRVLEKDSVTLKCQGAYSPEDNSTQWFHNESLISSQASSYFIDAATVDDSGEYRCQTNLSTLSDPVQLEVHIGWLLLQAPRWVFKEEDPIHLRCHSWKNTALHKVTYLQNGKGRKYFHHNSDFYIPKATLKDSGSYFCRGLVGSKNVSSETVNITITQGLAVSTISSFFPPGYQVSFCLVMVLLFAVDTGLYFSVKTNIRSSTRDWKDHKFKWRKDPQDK
Sequence of human CD16B (NA1) on NK92mi cells (human) (O75015 other isoform, or with tags, fused parts or gaps limits assumed): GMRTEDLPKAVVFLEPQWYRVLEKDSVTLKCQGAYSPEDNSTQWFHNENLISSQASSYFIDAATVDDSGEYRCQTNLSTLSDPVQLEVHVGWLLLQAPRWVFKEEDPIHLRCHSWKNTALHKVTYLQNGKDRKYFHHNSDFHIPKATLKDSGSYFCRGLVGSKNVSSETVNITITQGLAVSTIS
Sequence of human CD16B (NA2) on NK92mi cells (human) (O75015 17-200 N65S limits assumed): as the sequence (O75015 other isoform, or with tags, fused parts or gaps limits assumed) above, with R20S, N49S, D66N, V90I counted along it

16A (Biolegend, cat. #355608) (antibody)
percent of αβTCR+ cells in the MUC1-positive gate (dashed box) [1]: 16.9%
percent of αβTCR+ cells in the MUC1-positive gate (dashed box) [2]: 16.5%

HMFG1 (Abcam, cat. #ab215670) (antibody)
percent of αβTCR+ cells in the MUC1-positive gate (dashed box) [3]: 23.2%
percent of αβTCR+ cells in the MUC1-positive gate (dashed box) [4]: 10%
percent of αβTCR+ cells in the MUC1-positive gate (dashed box) [5]: 28.1%
percent of αβTCR+ cells in the MUC1-positive gate (dashed box) [6]: 28.2%

Human IgG (control column of Tables 10-12) (antibody)
EC50 [7]: 10.3 µg/mL
EMAX [7]: 7.46
EC50 [8]: 0.314 µg/mL
EMAX [8]: 7.66
EC50 [9]: 0.0112 µg/mL
EMAX [9]: 7.55

Isotype (antibody)
percent of αβTCR+ cells in the MUC1-positive gate (dashed box) [10]: 0.26%
percent of αβTCR+ cells in the MUC1-positive gate (dashed box) [11]: 1.17%
percent of αβTCR+ cells in the MUC1-positive gate (dashed box) [12]: 0.36%
percent of αβTCR+ cells in the MUC1-positive gate (dashed box) [13]: 0.05%
percent of αβTCR+ cells in the MUC1-positive gate (dashed box) [14]: 0.91%
percent of αβTCR+ cells in the MUC1-positive gate (dashed box) [15]: 1.04%
percent of αβTCR+ cells in the MUC1-positive gate (dashed box) [16]: 0.11%
percent of αβTCR+ cells in the MUC1-positive gate (dashed box) [17]: 0.04%
percent of αβTCR+ cells in the MUC1-positive gate (dashed box) [18]: 2.49%
percent of αβTCR+ cells in the MUC1-positive gate (dashed box) [19]: 1.86%
percent of αβTCR+ cells in the MUC1-positive gate (dashed box) [20]: 0.29%
percent of αβTCR+ cells in the MUC1-positive gate (dashed box) [21]: 0.15%
